Source: US11719696B2, “Methods and compounds for diagnosing threonyl-tRNA synthetase-associated diseases and conditions” (The University of Vermont and State Agricultural College, priority 2012, dated 2023)

Assays:
[1] = system: chorioallantoic membrane (CAM); assay: Chick chorioallantoic membrane (CAM) assay; type: in vivo, chicken
Protocol: Chick Chorioallantoic Membrane Assay—Fertilized chicken eggs (Sunrise Farms, Catskill, N.Y.) day 1-2 post-laying were incubated in a humidified incubator at 37° C. for 72 h. Cleaned eggs were cracked and plated in a sterile 10 cm^2 tissue culture-treated dish and incubated at 37° C. for another 7 days. On developmental day 10, 1 mm sterile gelatin sponge pieces (Surgifoam®; Johnson & Johnson Wound Management, Somerville, N.J.) were placed within the outer one-third of the membrane between large vessels. 40 μg/ml human bFGF and 2 μg/ml human VEGF were used as pro-angiogenic control compounds; 100 μg/mL retinoic acid (Sigma-Aldrich, St. Louis, Mo.) diluted in phosphate-buffered saline (PBS) was used as an angiostatic control. All compounds were applied in 10 μl to the CAM every 24 h for 72 h. Images were taken using a Leica MZ6 stereomicroscope every 24 h. Compounds were scored according to a modified version of Intensity Scoring as previously described (Ribatti, Nico et al. 2006). Briefly, each experimental condition was given a blinded score from 0-5 based on the change in the extent of vessel convergence and formation in proximity to the sponge from day 0 to day 3. Total score is averaged individual experimental condition scores from at least 15 replicates.
Fertilized chicken embryos were cultured ex-ova and, starting at developmental day 10, agents were applied daily to gelfoam sponges on the CAM. Images were recorded daily over 72 h and scored blindly according to a modified version Intensity Scoring as previously described (Ribatti, Nico, 2006). Additional details regarding methods are provided in the Methods and Materials section of Example 1.

[2] = system: Human umbilical vein endothelial cells (HUVECs); assay: In vitro endothelial tube formation assay; type: cell-based; details: 100 nM purified recombinant protein in low-serum media (0.2% FBS), 6 h
Protocol: In vitro Tube Formation Assay—Tube formation assays were performed as described (Arnaoutova and Kleinman 2010; Cassavaugh, Hale et al., 201). Human Umbilical Vein Endothelial Cells (HUVECs) were seeded in 48-well plates (1.5×10^4 cells/well) coated with 100 μl of Matrigel™ Basement Membrane Matrix Growth Factor Reduced (BD Biosciences, San Jose, Calif.) and incubated in Clonetics® EGM®-2 complete media (Lonza, Annandale, N.J.) or EGM®-2 with reduced serum (0.2% fetal bovine serum). Cells were incubated at 37° C. for 6 h then fixed in 10% formalin. Fixed samples were imaged by phase-contrast microscopy or stained with Oregon Green 488 Phalloidin (Molecular Probes, Eugene, Oreg.) then imaged with fluorescence microscopy (2× objective). Number of tubes and tube lengths (in pixels) were quantified using the Simple Neurite Tracer (Longair, Baker et al. 2011) plug-in on ImageJ software (NIH). Statistical analysis of one-way ANOVA was performed with GraphPad Software. Multiple comparisons were performed using the Tukey Test.

HUVECs [3] = assay: VEGF secretion by ELISA; type: cell-based, Human; details: purified recombinant TARS added to cell media, 24 h
Protocol: ELISA and Lactate Dehydrogenase Assays—Confluent HUVEC cultures (passage 4) were incubated at 37° C. in Clonetics® EGM®-2 modified with 0.2% fetal bovine serum with the addition of 50 ng/ml human VEGF or 50 ng/ml human TNF-α for 6 h as indicated. Culture media supernatants were tested for levels of secreted TARS protein using the Threonyl tRNA Synthetase (TARS) ELISA Kit (USCN Life Science, Wuhan, Hubei, PRC) according to manufacturer's instructions. Cell membrane integrity was confirmed using the lactate dehydrogenase assay CytoTox-ONE™ Homogeneous Membrane Integrity Assay (Promega, Madison, Wis.) according to manufacturer's instructions and reported as percent cytotoxicity relative to a lysis control. Levels of secreted VEGF were measured using the Human VEGF ELISA kit (Thermo Scientific) per manufacturer's instructions.

HUVECs [4] = assay: Endothelial cell proliferation assay (alamarBlue); type: cell-based, Human; details: HUVECs in low serum (0.2% FBS) media
Protocol: Endothelial Cell Proliferation Assay—The […] alamarBlue® (Invitrogen) reagent was used to assess cell proliferation (Ahmed, Gogal et al. 1994). HUVECs were seeded in a 96-well dish (1×10^3 cells/well) and grown for 48 h in EGM®-2 media. Cells were incubated in 0.2% FBS EGM®-2 media or EGM®-2 complete media as indicated; VEGF (50 ng/ml) and media alone served as controls. After 48 h, 72 h, or 96 h in culture, 10 μl/well premixed alamarBlue® (Invitrogen) was added and after 3 h at 37° C. the amount of reduced alamarBlue® was quantified by fluorescence (excitation at 530 nm, emission at 590 nm) on a microplate reader (Synergy™ HT, BioTek, Winooski, Vt.).

B1: TARS: N-terminal His6-tagged human threonyl-tRNA synthetase expressed and purified from E. coli (protein, UniProt P26639 1-723, looked up)
Threonine--tRNA ligase 1, …: MFEEKASSPSGKMGGEEKPIGAGEEKQKEGGKKKNKEGSGDGGRAELNPWPEYIYTRLEMYNILKAEHDSILAEKAEKDSKPIKVTLPDGKQVDAESWKTTPYQIACGISQGLADNTVIAKVNNVVWDLDRPLEEDCTLELLKFEDEEAQAVYWHSSAHIMGEAMERVYGGCLCYGPPIENGFYYDMYLEEGGVSSNDFSSLEALCKKIIKEKQAFERLEVKKETLLAMFKYNKFKCRILNEKVNTPTTTVYRCGPLIDLCRGPHVRHTGKIKALKIHKNSSTYWEGKADMETLQRIYGISFPDPKMLKEWEKFQEEAKNRDHRKIGRDQELYFFHELSPGSCFFLPKGAYIYNALIEFIRSEYRKRGFQEVVTPNIFNSRLWMTSGHWQHYSENMFSFEVEKELFALKPMNCPGHCLMFDHRPRSWRELPLRLADFGVLHRNELSGALTGLTRVRRFQQDDAHIFCAMEQIEDEIKGCLDFLRTVYSVFGFSFKLNLSTRPEKFLGDIEVWDQAEKQLENSLNEFGEKWELNSGDGAFYGPKIDIQIKDAIGRYHQCATIQLDFQLPIRFNLTYVSHDGDDKKRPVIVHRAILGSVERMIAILTENYGGKWPFWLSPRQVMVVPVGPTCDEYAQKVRQQFHDAKFMADIDLDPGCTLNKKIRNAQLAQYNFILVVGEKEKISGTVNIRTRDNKVHGERTISETIERLQQLKEFRSKQAEEEF
modifications: N-terminal His6 tag
notes: N-terminal His6-tagged human threonyl-tRNA synthetase expressed and purified from E. coli
sensitivity of the protein's CAM angiogenic effect to BC194 ([1]; protein co-applied with BC194): sensitive to BC194 | CAM vessel formation / vascularization on application of protein ([1]; purified protein applied daily to sponge on CAM, 72 h): stimulated vessel formation | number of tube branches on addition of protein [2]: significantly increased the number of tube branches | secretion of VEGF (ELISA) (HUVECs [3]): did not induce secretion of VEGF | cell proliferation with protein (HUVECs [4]): did not exert a significant effect
